Reference: patent US20110081354A1 (Bristol-Myers Squibb, published 2011)
Positions count from the first letter of the chain named. One block for each binder: values may come before it.

What was measured:
[1] = molecular target: T1, chimeric CTLA-4 protein comprising the extracellular and transmembrane domains of human CTLA-4 linked to the … (human; murine, UniProt P16410 36-187; P24161 52-164, limits assumed); assay: flow cytometry on cells expressing chimeric human CTLA-4/CD3zeta; PE anti-human IgG detection
T1 construct: domain: extracellular and transmembrane domains;domain: intracellular domain; also called cell surface CTLA4; hCTLA4+ cells

[2] = molecular target: T2, CTLA-4-Ig fusion protein comprising the extracellular domain of human CTLA-4 fused to the Fc region of human … (human, UniProt P16410 36-161); assay: blocking assay, flow cytometry: inhibition of CTLA-4-Ig binding to mouse B7-1 expressing cells
T2 construct: extracellular domain; also called CTLA-4 Hu Ig; soluble human CTLA-4 fusion protein; not shown: Fc region of human immunoglobulin
T2 sequence (looked up): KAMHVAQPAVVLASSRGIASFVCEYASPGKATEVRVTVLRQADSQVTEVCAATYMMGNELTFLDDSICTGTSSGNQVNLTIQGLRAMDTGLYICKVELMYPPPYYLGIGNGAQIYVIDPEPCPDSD

EC50 [1]: 0.661 nM | EC50 [2]: 7.41 nM
B1: 3A4 human monoclonal antibody (antibody, V domains shown)
VH: QVQVVESGGGVVQPGRSLRLSCAASGFTFSSYGMHWVRQAPGKGLEWVAVIWYDGSNKYYVDSVKGRFTISRDNSKNTLYLQMNSLRAEDTAVYYCARGPGYSSSFDYWGQGTLVTVSS
VL: DIQMTQSPSSLSASVGDRVTITCRASQGISSWLAWYQQKPEKAPKSLIYAASSLQSGVPSRFSGSGSGTDFTLTISSLQPEDFATYYCQQYNSYPLTFGGGTKVEIK
notes: Purified human IgG kappa antibody from a hybridoma (HuMab mouse); also called mAb 3A4

EC50 [1]: 0.247 nM | EC50 [2]: 15.3 nM
B2: 6C10 human monoclonal antibody (antibody, V domains shown)
VH: B1 VH with V4L, A23T, Y32H, I51V, Y53F, P100S, S105G
VL: B1 VL
notes: Purified human IgG kappa antibody from a hybridoma (HuMab mouse); also called mAb 6C10
